Test [1] concerns the target T1, human integrin β8 swap construct I G I N S (SEQ ID NO:126) (human, UniProt P26012 43-769).
T1 sequence: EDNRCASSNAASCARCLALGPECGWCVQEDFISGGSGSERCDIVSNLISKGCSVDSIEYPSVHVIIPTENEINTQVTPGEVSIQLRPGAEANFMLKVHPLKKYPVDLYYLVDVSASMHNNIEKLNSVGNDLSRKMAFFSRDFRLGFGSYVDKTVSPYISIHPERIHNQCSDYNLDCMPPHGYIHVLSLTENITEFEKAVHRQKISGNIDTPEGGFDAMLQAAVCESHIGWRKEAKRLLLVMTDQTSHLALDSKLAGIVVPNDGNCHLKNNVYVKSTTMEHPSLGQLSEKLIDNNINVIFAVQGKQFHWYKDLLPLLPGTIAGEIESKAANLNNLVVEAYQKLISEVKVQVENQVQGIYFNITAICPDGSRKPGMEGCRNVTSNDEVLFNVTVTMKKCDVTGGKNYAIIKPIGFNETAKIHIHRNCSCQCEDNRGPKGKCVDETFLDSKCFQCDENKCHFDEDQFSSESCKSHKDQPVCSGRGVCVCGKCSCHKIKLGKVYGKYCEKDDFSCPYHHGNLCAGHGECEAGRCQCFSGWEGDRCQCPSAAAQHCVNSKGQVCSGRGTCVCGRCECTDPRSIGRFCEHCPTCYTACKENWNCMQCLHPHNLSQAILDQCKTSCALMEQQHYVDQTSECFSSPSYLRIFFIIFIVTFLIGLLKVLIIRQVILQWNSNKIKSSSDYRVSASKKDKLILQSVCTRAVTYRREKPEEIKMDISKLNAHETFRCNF
The test can be described thus: flow cytometry, cell surface staining of β8 amino acid swap constructs. A general note: Flow cytometry measures light scatter and fluorescence of single cells or particles in a stream.

Test [2] concerns the target T2, mouse integrin β8 (mouse, UniProt Q0VBD0 22-767).
T2 construct: whole, on cells; also called mouse β8; itgb8
T2 sequence (looked up): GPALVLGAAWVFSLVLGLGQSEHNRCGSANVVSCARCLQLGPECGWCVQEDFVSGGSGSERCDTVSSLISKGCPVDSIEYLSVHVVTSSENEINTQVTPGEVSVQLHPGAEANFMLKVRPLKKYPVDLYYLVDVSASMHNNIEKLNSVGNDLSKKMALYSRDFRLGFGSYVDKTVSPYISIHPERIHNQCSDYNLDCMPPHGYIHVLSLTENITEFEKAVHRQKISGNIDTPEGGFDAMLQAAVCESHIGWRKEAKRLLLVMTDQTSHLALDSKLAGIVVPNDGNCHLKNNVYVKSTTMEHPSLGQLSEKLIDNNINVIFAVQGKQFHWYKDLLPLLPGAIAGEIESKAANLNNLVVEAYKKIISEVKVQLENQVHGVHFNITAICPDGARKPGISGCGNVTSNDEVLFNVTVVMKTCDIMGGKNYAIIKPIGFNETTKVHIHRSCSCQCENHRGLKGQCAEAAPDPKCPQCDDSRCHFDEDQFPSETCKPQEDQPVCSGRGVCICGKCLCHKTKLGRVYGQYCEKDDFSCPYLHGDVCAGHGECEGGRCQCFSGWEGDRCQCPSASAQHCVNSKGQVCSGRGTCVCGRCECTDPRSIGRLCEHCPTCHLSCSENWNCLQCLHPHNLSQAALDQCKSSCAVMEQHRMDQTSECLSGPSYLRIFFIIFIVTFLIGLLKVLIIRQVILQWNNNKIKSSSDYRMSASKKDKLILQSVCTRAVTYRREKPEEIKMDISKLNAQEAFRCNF
Described as above.

Test [3] addresses T3, human integrin β8 swap construct I G I N P (SEQ ID NO:125) (human, UniProt P26012 43-769).
T3 sequence: T1 sequence with S53P
The test is described as above.

For test [4], the target named is T4, human integrin αβ8 (αvβ8) expressed on cells (human, UniProt P06756 31-1048).
T4 construct: whole, on cells; β8 transfected into or endogenous on cells, unfixed or formalin fixed; also called human integrin β8; ITGB8
T4 sequence (P06756 31-1048): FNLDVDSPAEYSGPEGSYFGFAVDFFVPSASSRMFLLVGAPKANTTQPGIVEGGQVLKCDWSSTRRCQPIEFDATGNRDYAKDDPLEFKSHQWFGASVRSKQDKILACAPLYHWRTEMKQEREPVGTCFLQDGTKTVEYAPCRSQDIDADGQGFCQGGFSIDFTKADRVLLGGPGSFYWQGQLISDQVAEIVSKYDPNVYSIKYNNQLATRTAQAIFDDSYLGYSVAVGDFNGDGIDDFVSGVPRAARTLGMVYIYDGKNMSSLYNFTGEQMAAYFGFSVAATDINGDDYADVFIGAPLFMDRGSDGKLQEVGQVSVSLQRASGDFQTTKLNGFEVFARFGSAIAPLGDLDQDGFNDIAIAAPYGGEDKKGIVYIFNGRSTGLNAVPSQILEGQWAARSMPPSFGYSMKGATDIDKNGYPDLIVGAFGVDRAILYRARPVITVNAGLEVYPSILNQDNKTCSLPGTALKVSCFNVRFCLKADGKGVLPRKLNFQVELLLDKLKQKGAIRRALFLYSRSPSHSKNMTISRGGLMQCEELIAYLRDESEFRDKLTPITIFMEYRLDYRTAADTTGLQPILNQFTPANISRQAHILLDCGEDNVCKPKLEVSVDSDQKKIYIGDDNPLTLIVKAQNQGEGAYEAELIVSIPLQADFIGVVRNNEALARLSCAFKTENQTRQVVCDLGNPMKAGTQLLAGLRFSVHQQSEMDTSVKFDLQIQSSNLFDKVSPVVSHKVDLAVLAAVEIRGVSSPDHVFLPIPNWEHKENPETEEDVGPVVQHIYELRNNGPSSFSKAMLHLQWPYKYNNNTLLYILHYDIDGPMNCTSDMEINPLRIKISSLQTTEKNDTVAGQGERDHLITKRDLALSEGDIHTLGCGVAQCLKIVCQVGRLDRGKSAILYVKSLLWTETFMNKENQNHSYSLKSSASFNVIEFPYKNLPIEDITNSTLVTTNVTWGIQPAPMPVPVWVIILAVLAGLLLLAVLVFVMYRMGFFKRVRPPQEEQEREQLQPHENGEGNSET
The test is described as above.

The target in test [5] is T5, human integrin β8 swap construct V R I N S (SEQ ID NO:124) (human, UniProt P26012 43-769).
T5 sequence: T1 sequence with I32V, G37R
Described as above.

In test [6] the target is T2, mouse integrin β8. The test can be described thus: cell surface staining, flow cytometry.

Substitutions are numbered along the chain they refer to.

B1: 4F1 antibody (antibody, V domains shown)
VH: QVQLQQSGAELVRPGTSVKVSCKASGYAFTNYLIEWVKQRPGQGLEWIGVINPGTGGTNYNKKFKVKATLTADKSSSTAYMQLGGLTFDDSAVYFCAREGNARTYYYAMDYWGQGTSVTVSS
VL: DIEMTQTPASLSASVGETVTITCRASENIYSYLVWYQQKQGKSPQVLVYNAKTLAEGVPSRFSGSGSGTQFSLKINSLQPEDFGSYYCQHHNGTPYTFGGGTKLEIKR
notes: Hybridoma antibody; also called hybridoma clone 4F1
For B1, the “% positive” value was found to be 101% in test [1]; 3% in test [2]; 0% in test [3]; 100% in test [4]; 92% in test [5]. Further, in test [6], the binding result is listed as “no binding”.

B2: 6B9 antibody (antibody, V domains shown)
VH: QVQLQQSGAELVRPGTSVKVSCKASGYAFTDYLIEWVKQRPGQGLEWIGVINPETGGTNYNAKFKGKATLTADKSSSSAYMQLSSLTSGDSAVYFCAREAGNYIYAMDYWGQGTSVTVSS
VL: B1 VL with E3Q, T7S, E27V, V46L, Y49H, N92H
notes: Hybridoma antibody; also called hybridoma clone 6B9
For the molecule B2, the “% positive” value in test [1] amounted to 104%; in test [2], 6%; in test [3] it was 1%; in test [4], 100%; in test [5] it was 102%. Further, the binding result in test [6] was “no binding”.

The record behind these values is patent publication US20140271478A1 (University of California, published 2014).
